We go through two molecules from patent US20140196168A1 (SWETREE TECHNOLOGIES, published 2014).

For the assay, the target named is T1, Gal4-DNA Binding Domain fused to the Arabidopsis thaliana Med25 551-680 amino acid domain (bait, pGBKT7-Med25 … (Arabidopsis thaliana)).
T1 construct: Expressed in yeast AH109 as a two-hybrid bait; also called G4-DBD-Med25; Med25 bait construct
The experiment in a line: yeast two-hybrid with deletion derivatives.

B1: ZFHD1 amino acids 1-132 (two-hybrid derivative, Gal4 activation domain fusion) (other, Arabidopsis thaliana, UniProt Q9SEZ1 1-132, looked up, not shown: large carriers)
chain: MDLSSKPQQQLLNSLPIAGELTVTGEMGVCYKECLKNHAANLGGHALDGCGEFMPSPTATSTDPSSLRCAACGCHRNFHRRDPSENLNFLTAPPISSPSGTESPPSRHVSSPVPCSYYTSAPPHHVILSLSS
On to B1, for which the binding result is recorded as “binds”.

B2: DREB2A amino acids 169-254 (two-hybrid derivative, Gal4 activation domain fusion) (other, Arabidopsis thaliana, UniProt O82132 169-254, looked up, not shown: large carriers)
chain: CESKPFSGGVEPMYCLENGAEEMKRGVKADKHWLSEFEHNYWSDILKEKEKQKEQGIVETCQQQQQDSLSVADYGWPNDVDQSHLD
On to B2, for which the binding result is listed as “binds”.
